Data as given in US20250262210A1 (TRUSTEES OF COLUMBIA UNIVERSITY IN THE CITY OF NEW YORK, published 2025).

Columns and labels:
Assay in all cases: IP/MS, LZTR1 R810W-FLAG, U87
[1] = molecular target: PAPPA (human, UniProt Q13219 82-1627)
Outline: (§1)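 Extracted peptides in 3% acetonitrile/0.1% formic acid ran on a 50 cm C18 column into an Orbitrap Fusion, with MaxQuant identification and spectral counting.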

[2] = molecular target: T1, VPS18 (human, UniProt Q9P253 2-973)
T1 sequence (looked up): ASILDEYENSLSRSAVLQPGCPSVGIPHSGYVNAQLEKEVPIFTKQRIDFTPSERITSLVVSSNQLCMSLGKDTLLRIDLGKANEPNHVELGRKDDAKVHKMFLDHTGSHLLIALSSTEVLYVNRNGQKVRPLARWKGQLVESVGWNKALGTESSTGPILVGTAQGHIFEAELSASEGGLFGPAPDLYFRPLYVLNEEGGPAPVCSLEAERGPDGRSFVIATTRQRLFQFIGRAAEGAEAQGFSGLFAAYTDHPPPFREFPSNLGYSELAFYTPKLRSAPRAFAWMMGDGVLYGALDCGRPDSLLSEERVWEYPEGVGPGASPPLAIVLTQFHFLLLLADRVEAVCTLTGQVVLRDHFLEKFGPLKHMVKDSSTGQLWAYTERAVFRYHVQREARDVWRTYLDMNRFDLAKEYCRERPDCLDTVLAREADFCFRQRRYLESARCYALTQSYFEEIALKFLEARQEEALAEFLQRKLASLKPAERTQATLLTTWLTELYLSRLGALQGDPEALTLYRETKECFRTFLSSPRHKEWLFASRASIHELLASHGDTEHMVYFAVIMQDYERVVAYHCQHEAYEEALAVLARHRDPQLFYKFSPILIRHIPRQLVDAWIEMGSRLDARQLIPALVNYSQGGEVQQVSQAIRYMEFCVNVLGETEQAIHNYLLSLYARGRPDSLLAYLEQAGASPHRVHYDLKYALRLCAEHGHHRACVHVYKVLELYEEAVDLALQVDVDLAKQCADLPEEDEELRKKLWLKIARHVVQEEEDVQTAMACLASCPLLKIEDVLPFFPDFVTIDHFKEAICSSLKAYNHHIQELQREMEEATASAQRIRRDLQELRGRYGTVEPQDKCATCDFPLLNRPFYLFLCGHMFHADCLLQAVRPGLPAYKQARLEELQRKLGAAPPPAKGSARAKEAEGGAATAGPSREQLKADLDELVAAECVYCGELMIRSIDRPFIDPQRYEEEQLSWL
Outline: as §1

[3] = molecular target: TUBGCP2 (human, UniProt Q9BSJ2 1-902, limits assumed)
TUBGCP2, sequence (Q9BSJ2 whole entry): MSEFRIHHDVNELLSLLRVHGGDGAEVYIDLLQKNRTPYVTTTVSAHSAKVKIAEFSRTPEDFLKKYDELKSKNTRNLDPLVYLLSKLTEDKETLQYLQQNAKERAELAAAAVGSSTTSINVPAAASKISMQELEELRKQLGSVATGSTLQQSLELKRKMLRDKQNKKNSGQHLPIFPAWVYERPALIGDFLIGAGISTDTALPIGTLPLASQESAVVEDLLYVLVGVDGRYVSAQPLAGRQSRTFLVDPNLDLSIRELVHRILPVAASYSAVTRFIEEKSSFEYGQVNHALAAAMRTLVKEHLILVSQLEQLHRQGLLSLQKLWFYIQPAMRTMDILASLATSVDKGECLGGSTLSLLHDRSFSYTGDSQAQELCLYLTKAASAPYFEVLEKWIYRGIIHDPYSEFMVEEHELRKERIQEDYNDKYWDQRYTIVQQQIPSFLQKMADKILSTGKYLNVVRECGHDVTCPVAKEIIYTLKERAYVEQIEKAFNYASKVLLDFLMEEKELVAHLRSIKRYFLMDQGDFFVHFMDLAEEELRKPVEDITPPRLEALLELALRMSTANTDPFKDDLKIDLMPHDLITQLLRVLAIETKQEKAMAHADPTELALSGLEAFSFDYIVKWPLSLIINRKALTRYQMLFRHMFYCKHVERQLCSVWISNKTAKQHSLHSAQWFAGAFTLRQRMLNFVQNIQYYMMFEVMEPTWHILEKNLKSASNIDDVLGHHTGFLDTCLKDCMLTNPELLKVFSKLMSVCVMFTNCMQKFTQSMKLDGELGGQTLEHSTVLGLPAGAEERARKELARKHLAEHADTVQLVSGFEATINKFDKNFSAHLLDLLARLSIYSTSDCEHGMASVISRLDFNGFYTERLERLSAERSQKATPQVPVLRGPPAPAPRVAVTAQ
Outline: as §1

Measured: binding result

PAPPA, sequence (Q13219 82-1627 limits assumed): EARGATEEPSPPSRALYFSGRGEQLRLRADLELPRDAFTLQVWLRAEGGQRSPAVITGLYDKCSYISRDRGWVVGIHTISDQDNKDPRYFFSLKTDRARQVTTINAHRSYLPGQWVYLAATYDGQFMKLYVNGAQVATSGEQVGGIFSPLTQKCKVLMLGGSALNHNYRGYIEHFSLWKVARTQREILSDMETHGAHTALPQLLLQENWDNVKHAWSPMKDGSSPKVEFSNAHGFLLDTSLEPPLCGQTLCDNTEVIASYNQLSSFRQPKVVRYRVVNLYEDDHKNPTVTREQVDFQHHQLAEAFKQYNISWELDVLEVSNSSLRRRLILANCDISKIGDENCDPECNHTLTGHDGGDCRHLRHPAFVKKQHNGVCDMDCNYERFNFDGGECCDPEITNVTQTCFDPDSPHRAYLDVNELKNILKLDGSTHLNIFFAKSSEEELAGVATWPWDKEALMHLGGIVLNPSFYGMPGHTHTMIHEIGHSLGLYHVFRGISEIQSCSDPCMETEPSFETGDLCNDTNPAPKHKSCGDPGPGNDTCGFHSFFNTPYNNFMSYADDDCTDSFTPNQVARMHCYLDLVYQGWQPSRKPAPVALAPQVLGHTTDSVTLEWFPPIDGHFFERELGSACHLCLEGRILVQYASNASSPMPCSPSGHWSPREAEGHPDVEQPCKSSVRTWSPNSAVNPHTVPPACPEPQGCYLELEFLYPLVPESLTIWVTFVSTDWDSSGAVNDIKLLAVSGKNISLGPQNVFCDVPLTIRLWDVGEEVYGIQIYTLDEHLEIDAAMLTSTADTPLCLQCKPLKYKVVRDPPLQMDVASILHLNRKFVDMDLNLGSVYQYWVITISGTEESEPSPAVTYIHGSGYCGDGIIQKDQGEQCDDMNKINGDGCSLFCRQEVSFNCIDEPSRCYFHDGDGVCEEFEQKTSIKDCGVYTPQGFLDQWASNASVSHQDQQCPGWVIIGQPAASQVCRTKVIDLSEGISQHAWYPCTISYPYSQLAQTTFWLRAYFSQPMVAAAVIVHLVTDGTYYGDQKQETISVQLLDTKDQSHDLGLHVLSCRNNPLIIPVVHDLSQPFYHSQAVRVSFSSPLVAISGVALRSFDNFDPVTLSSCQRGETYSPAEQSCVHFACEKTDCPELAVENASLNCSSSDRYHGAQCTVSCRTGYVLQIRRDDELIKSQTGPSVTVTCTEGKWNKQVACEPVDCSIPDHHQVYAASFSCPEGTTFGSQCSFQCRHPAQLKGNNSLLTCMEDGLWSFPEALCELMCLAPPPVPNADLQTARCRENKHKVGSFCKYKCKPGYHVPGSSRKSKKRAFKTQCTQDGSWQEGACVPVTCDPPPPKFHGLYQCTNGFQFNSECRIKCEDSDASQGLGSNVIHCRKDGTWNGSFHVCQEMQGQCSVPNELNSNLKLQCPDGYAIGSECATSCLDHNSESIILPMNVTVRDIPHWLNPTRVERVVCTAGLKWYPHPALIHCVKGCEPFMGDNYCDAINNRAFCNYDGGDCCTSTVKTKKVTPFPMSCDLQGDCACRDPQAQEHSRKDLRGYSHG

B1: LZTR1 R810W-FLAG (other, human, UniProt Q8N653 1-840, looked up)
chain: MAGPGSTGGQIGAAALAGGARSKVAPSVDFDHSCSDSVEYLTLNFGPFETVHRWRRLPPCDEFVGARRSKHTVVAYKDAIYVFGGDNGKTMLNDLLRFDVKDCSWCRAFTTGTPPAPRYHHSAVVYGSSMFVFGGYTGDIYSNSNLKNKNDLFEYKFATGQWTEWKIEGRLPVARSAHGATVYSDKLWIFAGYDGNARLNDMWTIGLQDRELTCWEEVAQSGEIPPSCCNFPVAVCRDKMFVFSGQSGAKITNNLFQFEFKDKTWTRIPTEHLLRGSPPPPQRRYGHTMVAFDRHLYVFGGAADNTLPNELHCYDVDFQTWEVVQPSSDSEVGGAEVPERACASEEVPTLTYEERVGFKKSRDVFGLDFGTTSAKQPTQPASELPSGRLFHAAAVISDAMYIFGGTVDNNIRSGEMYRFQFSCYPKCTLHEDYGRLWESRQFCDVEFVLGEKEECVQGHVAIVTARSRWLRRKITQARERLAQKLEQEAAPVPREAPGVAAGGARPPLLHVAIREAEARPFEVLMQFLYTDKIKYPRKGHVEDVLLIMDVYKLALSFQLCRLEQLCRQYIEASVDLQNVLVVCESAARLQLSQLKEHCLNFVVKESHFNQVIMMKEFERLSSPLIVEIVRRKQQPPPRTPLDQPVDIGTSLIQDMKAYLEGAGAEFCDITLLLDGHPRPAHKAILAARSSYFEAMFRSFMPEDGQVNISIGEMVPSRQAFESMLRYIYYGEVNMPPEDSLYLFAAPYYYGFYNNRLQAYCKQNLEMNVTVQNVLQILEAADKTQALDMKRHCLHIIVHQFTKVSKLPTLWSLSQQLLLDIIDSLASHISDKQCAELGADI
notes: Stably expressed in U87 cells by lentivirus; also called LZTR1-FLAG-R810W; LZTR1 RW; not shown: FLAG tag
binds: [1] | [2] | [3]
